Assay results taken from US20250325556A1, “COMPOSITIONS FOR LOCAL BONE FORMATION” (OssiFi Therapeutics LLC, priority 2021, published 2025).

B1: sclerostin: ectopic sclerostin protein added to cells; inhibits mineralization in MC3T3 osteoblast cells (protein, UniProt Q9BQB4 24-213, looked up)
Sclerostin: QGWQAFKNDATEIIPELGEYPEPPPELENNKTMNRAENGGRPPHHPFETKDVSEYSCRELHFTRYVTDGPCRSAKPVTELVCSGQCGPARLLPNAIGRGKWWRPSGPDFRCIPDRYRAQRVQLLCPGGEAPRARKVRLVASCKCKRLTRFHNQSELKDFGTEAARPQKGRKPRPRARSAKANQAELENAY

Test system: MC3T3-E1 (mouse calvarial) osteoblast cells
Experiment: Mineralization assay: rescue of the inhibition of mineralization by sclerostin (ARS mineralization)
Assay type: cell-based
Conditions: for ARS mineralization relative to wildtype mineralization: additive alone, no O20221-1, compared with cells with no additives
Excerpt: Mineralization (crystalline calcium phosphate formation) represents an in vitro model of bone formation. Using an assay in which the amount of mineralization is quantified by measuring total calcium after solubilization of deposited crystalline calcium phosphate, sclerostin was previously shown to inhibit mineralization in MC3T3-E1 (mouse calvarial) osteoblast cells. Li et al., J Bone Miner Res 24:578-588 (2008). Following the protocol described in Li et al., Compositions prepared in accordance with Example 1 or mixtures of the described composition components were assayed for their ability to rescue the inhibition of mineralization by sclerostin in MC3T3 osteoblast cells. This assay was used in the examples listed below.

| Molecule | ARS mineralization, restoration of normal (wildtype) mineral (in presence of sclerostin, compared with wildtype mineralization (cells with no additives)) | ARS mineralization relative to wildtype mineralization | ARS mineralization relative to wildtype mineralization (listed as Sclerostin) |
| --- | --- | --- | --- |
| COc1ccc2c3ccnc(C(F)(F)F)c3n(CCN3CCOCC3)c2n1 [O20221-1, 4-(2-(2-methoxy-8-(trifluoromethyl)-9H-pyrrolo[2,3-b:5,4-c′]dipyridin-9-yl)ethyl)morpholine] | restores normal mineral | – | – |
| B1 | – | inhibits normal mineralization | inhibits wildtype mineralization |
